Results on two substances are retold here after US20020052313A1.

Test [1] addresses low-affinity NGF binding sites on murine unfractionated sIg^+ B cells (mouse) (UniProt Q9Z0W1). In words: equilibrium binding of 125I-NGF on acid-treated murine splenic B lymphocytes (unfractionated sIg+ cells), low-affinity sites.
In test [2] the target is high-affinity NGF binding sites on murine unfractionated sIg^+ B cells (mouse) (UniProt Q3UFB7). Description: equilibrium binding of 125I-NGF on acid-treated murine splenic B lymphocytes (unfractionated sIg+ cells), high-affinity sites.
Sequence of UniProt Q3UFB7 (Q3UFB7 34-799): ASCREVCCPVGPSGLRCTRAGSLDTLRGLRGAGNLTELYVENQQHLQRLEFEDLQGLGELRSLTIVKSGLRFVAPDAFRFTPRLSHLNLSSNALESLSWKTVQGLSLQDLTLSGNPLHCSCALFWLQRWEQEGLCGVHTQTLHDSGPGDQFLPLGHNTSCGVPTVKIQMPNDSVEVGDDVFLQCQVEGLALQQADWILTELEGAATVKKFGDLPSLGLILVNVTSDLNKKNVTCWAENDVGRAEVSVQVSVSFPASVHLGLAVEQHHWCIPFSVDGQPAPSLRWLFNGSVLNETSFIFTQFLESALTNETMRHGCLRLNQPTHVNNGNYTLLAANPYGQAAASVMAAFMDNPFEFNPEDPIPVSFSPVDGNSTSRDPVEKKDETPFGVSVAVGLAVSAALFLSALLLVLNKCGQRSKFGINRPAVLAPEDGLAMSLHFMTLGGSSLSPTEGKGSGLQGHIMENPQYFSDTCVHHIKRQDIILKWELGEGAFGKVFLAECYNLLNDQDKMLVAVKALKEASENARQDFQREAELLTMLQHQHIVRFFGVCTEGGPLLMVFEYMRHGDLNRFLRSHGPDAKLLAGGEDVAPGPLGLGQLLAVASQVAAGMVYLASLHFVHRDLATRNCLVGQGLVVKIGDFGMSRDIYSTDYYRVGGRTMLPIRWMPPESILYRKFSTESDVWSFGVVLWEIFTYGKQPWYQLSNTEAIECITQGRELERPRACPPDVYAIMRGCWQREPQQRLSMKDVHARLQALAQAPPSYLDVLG
Test [3] concerns the target p75^NGFR (human, on B lymphocytes) (human) (UniProt P08138). Description: equilibrium binding of 125I-NGF, Scatchard analysis, large (in vivo activated) human tonsil B cells, low-affinity class of sites.
Sequence of UniProt P08138 (P08138 29-427): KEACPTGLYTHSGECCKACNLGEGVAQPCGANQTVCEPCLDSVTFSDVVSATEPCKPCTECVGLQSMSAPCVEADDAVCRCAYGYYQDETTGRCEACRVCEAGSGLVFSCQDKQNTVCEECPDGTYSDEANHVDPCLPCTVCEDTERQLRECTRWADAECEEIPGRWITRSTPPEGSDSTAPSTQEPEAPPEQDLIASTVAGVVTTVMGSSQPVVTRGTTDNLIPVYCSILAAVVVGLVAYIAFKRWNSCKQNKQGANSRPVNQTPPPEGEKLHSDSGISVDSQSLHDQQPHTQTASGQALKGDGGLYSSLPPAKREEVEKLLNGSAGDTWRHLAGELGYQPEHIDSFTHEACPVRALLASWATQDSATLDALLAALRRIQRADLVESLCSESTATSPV
The target is the same in test [4]. In words: equilibrium binding of 125I-NGF, Scatchard analysis, small resting human B lymphocytes after acid (pH 3.0) treatment, low-affinity receptors.
In test [5] the target is gp39 (CD40 ligand) (human) (UniProt P29965). Description: cell-based or functional assay.
Sequence of UniProt P29965 (P29965 whole entry): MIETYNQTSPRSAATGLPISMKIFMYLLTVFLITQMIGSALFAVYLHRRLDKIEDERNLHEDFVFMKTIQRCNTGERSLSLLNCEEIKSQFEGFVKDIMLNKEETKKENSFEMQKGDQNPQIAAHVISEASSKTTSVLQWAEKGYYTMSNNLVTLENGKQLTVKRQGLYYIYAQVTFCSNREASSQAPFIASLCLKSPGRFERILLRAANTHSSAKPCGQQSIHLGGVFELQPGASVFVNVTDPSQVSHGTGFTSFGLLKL

Sequence of UniProt Q9Z0W1 (Q9Z0W1 32-427): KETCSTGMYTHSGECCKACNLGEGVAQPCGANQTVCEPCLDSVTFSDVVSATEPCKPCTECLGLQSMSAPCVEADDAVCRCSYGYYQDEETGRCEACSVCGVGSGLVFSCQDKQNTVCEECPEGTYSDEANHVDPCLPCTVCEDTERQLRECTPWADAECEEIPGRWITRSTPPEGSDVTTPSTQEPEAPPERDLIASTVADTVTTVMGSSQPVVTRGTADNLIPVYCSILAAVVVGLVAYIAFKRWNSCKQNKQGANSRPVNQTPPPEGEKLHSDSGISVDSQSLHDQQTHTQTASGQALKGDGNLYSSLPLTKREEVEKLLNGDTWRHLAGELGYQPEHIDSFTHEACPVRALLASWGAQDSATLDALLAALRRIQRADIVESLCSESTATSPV

Broadly, the Kd is the equilibrium constant for the complex coming apart. A lower Kd goes with tighter binding. “^125I-NGF (Nerve Growth Factor, radio-iodinated, Amersham) (ligand)”: the Kd amounted to 1.1 nM in test [1], 0.135 nM in test [2], 1 nM in test [3] and 1 nM in test [4]. Further, the results for the binding sites per cell (binding sites per cell) in test [1] and in test [2] were 1e+06 and 4800, respectively. The binding sites/cell (binding sites/cell) in test [3] and in test [4] was 1e+06 in each case.

For the substance “soluble CD40 pentamer (from UniProt P25942 21-193)”, in test [5], the IgA (ng/ml) in supernatants of PWM-stimulated human PBMNC, PWM + CD40µ (CD4µ control 9,865) is 4790 ng/mL; the IgG (ng/ml) in supernatants of PWM-stimulated human PBMNC, PWM + CD40µ (CD4µ control 1,024) turned out to be 554 ng/mL; the IgM (ng/ml) in supernatants of PWM-stimulated human PBMNC, PWM + CD40µ (CD4µ control 928) turned out to be 1530 ng/mL.
